Experiment [1] addresses hemagglutinin (HA) on live influenza A virus A/California/4/09 H1N1 (Influenza A virus A/California/04/2009 …). Briefly: cell-based or functional assay.
Experiment [2] addresses hemagglutinin (HA) on live influenza A virus A/Wisconsin/67/05 H3N2 (Influenza A virus A/Wisconsin/67/2005 …). Nature of the experiment: cell-based or functional assay.
The target in experiment [3] is hemagglutinin (HA) on live influenza A virus A/Solomon Islands/3/06 H1N1 (Influenza A virus A/Solomon …). Briefly: cell-based or functional assay.
In experiment [4] the target is T1, M2 protein of A/Puerto Rico/8/34 (H1N1), on virus particles, infected MDCK cells or transfected cells (influenza A virus A/Puerto Rico/8/34 …, UniProt P06821 1-97).
T1 construct: whole, on cells
Nature of the experiment: ELISA on purified A/Puerto Rico/8/34 virus (FIG. 14a). A general note: An ELISA detects its analyte on a solid surface through an enzyme-linked reagent.

Experiment [5] addresses recombinant homotrimeric HA, A/Solomon Islands/3/06 H1N1 (Influenza A virus A/Solomon …). Nature of the experiment: trimeric HA microarray, transfection set 5.
The target of experiment [6] is recombinant homotrimeric HA, A/Wisconsin/67/05 H3N2 (Influenza A virus A/Wisconsin/67/05 …). Briefly: trimeric HA microarray, transfection set 5.
In experiment [7] the target is recombinant homotrimeric HA, A/South Carolina/1/18 H1N1 (Influenza A virus A/South Carolina/1/18 …). Briefly: trimeric HA microarray, transfection set 5.
Experiment [8] addresses recombinant homotrimeric HA, A/Japan/305/57 H2N2 (Influenza A virus A/Japan/305/57 (H2N2)). Briefly: trimeric HA microarray, transfection set 5.
The target in experiment [9] is recombinant homotrimeric HA, A/swine/Ontario/01911-2/99 H4N6 (Influenza A virus …). Briefly: trimeric HA microarray, transfection set 5.
For experiment [10], the target named is recombinant homotrimeric HA, A/Indonesia/5/05 H5N1 (Influenza A virus A/Indonesia/5/05 …). Briefly: trimeric HA microarray, transfection set 5.
Experiment [11] deals with recombinant homotrimeric HA, A/Vietnam/1203/04 H5N1 (Influenza A virus A/Vietnam/1203/04 …). Nature of the experiment: trimeric HA microarray, transfection set 5.
In experiment [12] the target is recombinant homotrimeric HA, A/California/4/09 H1N1 (Influenza A virus A/California/4/09 …). Nature of the experiment: trimeric HA microarray, transfection set 5.
The target of experiment [13] is T2, hemagglutinin (HA) of influenza A/Solomon Islands/3/06 H1N1 (Influenza A virus A/Solomon …). Briefly: ELISA, inactivated whole virions coated; transfection supernatant set 2.
Experiment [14] concerns the target T3, hemagglutinin (HA) of influenza A/Japan/305/57 H2N2 (Influenza A virus A/Japan/305/1957 …, UniProt P03451 16-562). The experiment is described as above.
Experiment [15] concerns the target T2, hemagglutinin (HA) of influenza …. Nature of the experiment: ELISA, inactivated whole virions coated; transfection supernatant set 4.
In experiment [16] the target is T3, hemagglutinin (HA) of influenza …. The experiment is described as above.
Experiment [17] concerns the target T2, hemagglutinin (HA) of influenza …. Nature of the experiment: ELISA, inactivated whole virions coated; transfection supernatant set 1.
Experiment [18] deals with T3, hemagglutinin (HA) of influenza …. Described as above.
The target of experiment [19] is T2, hemagglutinin (HA) of influenza …. Nature of the experiment: ELISA, inactivated whole virions coated; transfection supernatant set 5.
For experiment [20], the target named is T3, hemagglutinin (HA) of influenza …. The description is as above.
For experiment [21], the target named is T2, hemagglutinin (HA) of influenza …. Briefly: ELISA, inactivated whole virions coated; transfection supernatant set 3.
In experiment [22] the target is T3, hemagglutinin (HA) of influenza …. Described as above.
Experiment [23] deals with T2, hemagglutinin (HA) of influenza …. Briefly: cell-based or functional assay.

B1: TCN-546 (5089_L08) (antibody, V domains shown)
VH: QVQLQQWGAGLLKPSETLSLTCGVYGGSLSDYYWSWIRQPPGKGLEWIGEINHSGGTNYNPSLKRRVTISVDTSKKQFSLKMNSVTAADTAVYYCARGTDPDTEVYCRAGNCAAFDFWGQGTLVTVSS
VL: EIVLTQSPGTLSLSPGERATLSCRASHFVIGRAVAWYQQKPGQAPRLLIYGASSRATGIPDRFSGSGSGTDFTLTISRLETEDFAVFYCQHYGSSPRYAFGQGTKLEIK
As for B1, the “% Neutralization” value in experiment [1] was determined as 0%; in experiment [2], 100%; in experiment [3] it was 98%.

B2: TCN-031 (23K12) (antibody, V domains shown)
VH: EVQLVESGGGLVQPGGSLRISCAASGFTVSSNYMSWVRQAPGKGLEWVSVIYSGGSTYYADSVKGRFSFSRDNSKNTVFLQMNSLRAEDTAVYYCARCLSRMRGYGLDVWGQGTTVTVSS
VL: DIQMTQSPSSLSASVGDRVTITCRTSQSISSYLNWYQQKPGKAPKLLIYAASSLQSGVPSRFSGSGSGTDFTLTISGLQPEDFATYYCQQSYSMPAFGQGTKLEIK
For the molecule B2, the EC50 (in general, the midpoint of the concentration-response curve) in [4] is about 0.1 µg/mL.

B3: TCN-556 (5089_K12) (antibody, V domains shown)
VH: QVQLVQSGAEVKKPGASVKVSCKASGYTFIGYDMHWVRQAPGQGLEWMGWINAKRGGTNYAQKFQGRVTMTRDTSISTAYMELNSLRSDDTAVYYCARGVGSRTTIFGVLNPEFDYWGQGTLVTVSS
VL: QSALTQPPSASGSPGQSVTISCTGSSSDVGGYDYVSWYQQHPGKAPKLLIYEVTKRPSGVPDRFSGSKSGNTASLTVSGLQAEDEADYYCSSYAGNYNHVFGPGTKVTVL
On to B3, for which the “Trimeric HA Binding RLU” value in experiment [5] was 23400 RLU; in experiment [6], 44700 RLU; in experiment [7], 32700 RLU; in experiment [8], 22800 RLU; in experiment [9], 19300 RLU; in experiment [10], 15200 RLU. In addition, the “Trimeric HA Binding RLU” value in experiment [11] came to 17400 RLU; in [12], 20900 RLU.

B4: TCN-560 (5084_P10) (antibody, V domains shown)
VH: EVQLVESGGGLVQPGGSLRLSCAASGFIFRNYWMSWVRQAPGKGLEWVANIKQDGREKYYVDSLRGRVNISRDNAENSLYLHMNSLRVEDTAVYFCARARMVVVTGDGFDVWGHGTMVTVSS
VL: DIQMTQSPSSLSASVGDRVTITCRASQNIKRYFNWYQQKPGKAPKLLIYAASNLENGVPSRFSGSGSGTDFTLTISSLQPEDFATYYCQQSFSKSWTFGQGTNVDIK
Turning to B4, the “Trimeric HA Binding RLU” value in [5] came to 22400 RLU; in experiment [6], 55400 RLU; in [7], 30500 RLU; in experiment [8] it was 25900 RLU; in [9] it was 16800 RLU; in experiment [10], 17000 RLU. The “Trimeric HA Binding RLU” value in experiment [11] came to 19500 RLU; in experiment [12], 31100 RLU.

B5: TCN-504 (3251_K17) (antibody, V domains shown)
VH: QVQLQESGPGLVKPSETLSLTCAVSGVSISNIDFYWGWIRQPPGKGLEWIGNIYYTGITFYNPSLSSRVAISIDTSKNQFSLTLTSVTAADTAMYYCARHYGDSEAINDAFDIWGQGTMLTVSS
VL: EIVMTQSPATLSVSPGERATLSCRASQSVGNSLAWYQQRPGQAPRLLIYGASTRATGIPPRFSGSGSGTEFTLTISSLQTEDFAVYYCQQYINWRPLSFGGGTKVEIK
Consider B5, for which the OD450 in [13] stood at 3.65 OD450; in [14], 3.62 OD450; in [15], 3.52 OD450; in [16], 3.51 OD450; in experiment [17] it was 3.65 OD450; in experiment [18], 3.65 OD450. Further, the OD450 in experiment [19] was 3.6 OD450; in [20], 3.59 OD450; in [21], 3.63 OD450; in experiment [22], 3.64 OD450.

B6: TCN-523 (5248_A17) (antibody, V domains shown)
VH: QVQLVQSGAEVKKPGSSVKVSCKASGGSFSNYAFSWVRQAPGQGLEWMGGTIPLLGTTNYAQKFQGRVTISADQFTSTAYMELGSLRSEDTAVYYCTRRKMTTAFDSWGQGTLVTVSS
VL: QPVLTQPPSASASLGASVTLTCTLSSAYSNYKVDWYQQRPGKGPRFVMRVGTGGIVGSKGDGIPDRFSVLGSGLNRYLTIKNIQEEDESDYHCGADHGSGSNFVSPYVFGGGTKLTVL
As to B6, in experiment [23], the “% Neutralization” value worked out at 69%. Moreover, the OD450 was 3.67 OD450 in experiment [13]; 1.39 OD450 in experiment [14]; 3.43 OD450 in experiment [15]; 1.73 OD450 in [16]; 3.59 OD450 in [17]; 1.69 OD450 in experiment [18]. The OD450 in experiment [19] was found to be 3.62 OD450; in [20], 2.56 OD450; in experiment [21], 3.59 OD450; in experiment [22], 3.47 OD450.

B7: TCN-032 (8I10) (antibody, V domains shown)
VH: QVQLQESGPGLVKPSETLSLTCTVSGSSISNYYWSWIRQSPGKGLEWIGFIYYGGNTKYNPSLKSRVTISQDTSKSQVSLTMSSVTAAESAVYFCARASCSGGYCILDYWGQGTLVTVSS
VL: DIQMTQSPSSLSASVGDRVTITCRASQNIYKYLNWYQQRPGKAPKGLISAASGLQSGVPSRFSGSGSGTDFTLTITSLQPEDFATYYCQQSYSPPLTFGGGTRVEIK
For the molecule B7, the concentration giving a half-maximal response (EC50) in [4] is about 0.1 µg/mL.

Source of the values: patent US20120207760A1 (THERACLONE SCIENCES, published 2012).
